Results reported in patent CN105601719A, “拟组织金属蛋白酶抑制因子多肽及其应用” (Suzhou Puluoda Biological Science and Technology Co Ltd, priority 2016, dated 2016).
pEC50, pIC50: −log10 of the molar value.

Experiments:
[1] = target: T1, recombinant human matrix metalloproteinase-2 (重组人基质金属蛋白酶-2) (Homo sapiens, UniProt P08253); experiment: In vitro inhibition of matrix metalloproteinase-2 (fluorogenic peptide cleavage); format: biochemical; details: MMP-2; substrate Mca-Pro-Leu-Gly-Leu-Dpa-Ala-Arg-NH2; pH 7.4; 37 °C; 100 μl
T1 construct: 该酶用0.01μM的基质金属蛋白酶-3活性位点活化; made in house; host or cells: E. coli
T1 sequence (P08253 110-660): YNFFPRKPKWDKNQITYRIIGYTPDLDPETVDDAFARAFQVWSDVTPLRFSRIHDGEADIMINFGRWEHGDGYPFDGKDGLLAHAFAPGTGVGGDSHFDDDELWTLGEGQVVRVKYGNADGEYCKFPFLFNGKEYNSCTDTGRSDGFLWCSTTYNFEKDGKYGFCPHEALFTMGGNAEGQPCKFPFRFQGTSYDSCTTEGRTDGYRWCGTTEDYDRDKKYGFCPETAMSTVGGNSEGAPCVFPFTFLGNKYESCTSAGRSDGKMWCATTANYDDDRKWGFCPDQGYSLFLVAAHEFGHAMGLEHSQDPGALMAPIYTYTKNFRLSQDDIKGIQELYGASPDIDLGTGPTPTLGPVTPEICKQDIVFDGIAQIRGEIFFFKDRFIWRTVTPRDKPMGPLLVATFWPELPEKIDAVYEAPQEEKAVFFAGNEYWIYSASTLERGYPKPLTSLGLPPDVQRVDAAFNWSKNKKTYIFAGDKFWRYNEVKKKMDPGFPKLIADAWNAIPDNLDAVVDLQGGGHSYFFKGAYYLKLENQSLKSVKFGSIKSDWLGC

[2] = tested on: human osteoblasts (人成骨细胞); experiment: Growth of human osteoblasts cultured in vitro (MTT colorimetric assay); format: cell-based; details: 48 h, absorbance 620 nm
[3] = target: recombinant human matrix metalloproteinase-9 (重组人基质金属蛋白酶-9) (Homo sapiens, UniProt P14780); experiment: In vitro inhibition of matrix metalloproteinase-9 (fluorogenic peptide cleavage); format: biochemical; details: MMP-9; same fluorogenic substrate, 10 μM final; 37 °C; 100 μl
recombinant human matrix metalloproteinase-9 (重组人基质金属蛋白酶-9), sequence (P14780 94-707): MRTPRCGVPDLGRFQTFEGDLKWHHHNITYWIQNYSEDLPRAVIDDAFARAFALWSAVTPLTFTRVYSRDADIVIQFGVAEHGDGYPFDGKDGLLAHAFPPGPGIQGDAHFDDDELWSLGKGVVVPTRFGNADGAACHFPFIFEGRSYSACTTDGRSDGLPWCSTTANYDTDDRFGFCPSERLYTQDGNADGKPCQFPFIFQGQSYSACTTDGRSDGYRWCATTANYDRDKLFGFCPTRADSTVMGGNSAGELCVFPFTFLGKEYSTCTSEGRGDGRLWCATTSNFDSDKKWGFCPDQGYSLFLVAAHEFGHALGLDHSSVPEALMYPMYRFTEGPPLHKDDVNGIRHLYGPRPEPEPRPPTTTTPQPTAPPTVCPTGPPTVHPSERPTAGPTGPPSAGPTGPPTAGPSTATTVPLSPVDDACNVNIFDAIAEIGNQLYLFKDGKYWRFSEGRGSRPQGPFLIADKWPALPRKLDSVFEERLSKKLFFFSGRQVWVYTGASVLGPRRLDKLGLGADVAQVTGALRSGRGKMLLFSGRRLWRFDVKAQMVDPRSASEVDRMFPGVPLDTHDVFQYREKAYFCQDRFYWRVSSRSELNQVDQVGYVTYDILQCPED

pIC50 [1]: 4.12
pIC50 [3]: 4.59
Sequence: PEPEFHLISAFWPSLPSYLDAA [实施例1, TIMP-mimetic 22-residue peptide made by Fmoc solid-phase synthesis]
pEC50 [2]: 4.88
